PMC10663500, “High-throughput analysis system of interaction kinetics for data-driven antibody design” (Scientific Reports, 2023)

B1: toripalimab Fab (wild-type) (Fab, V domains shown)
VH: QGQLVQSGAEVKKPGASVKVSCKASGYTFTDYEMHWVRQAPIHGLEWIGVIESETGGTAYNQKFKGRVTITADKSTSTAYMELSSLRSEDTAVYYCAREGITTVATTYYWYFDVWGQGTTVTVSS
VL: DVVMTQSPLSLPVTLGQPASISCRSSQSIVHSNGNTYLEWYLQKPGQSPQLLIYKVSNRFSGVPDRFSGSGSGTDFTLKISRVEAEDVGVYYCFQGSHVPLTFGQGTKLEIK
notes: toripalimab Fab heavy chain (VH-CH1); toripalimab Fab light chain (VL-CL); Residue numbers count consecutively from residue 1 of each chain; also called anti-hPD-1 antibody toripalimab; source: Brevibacillus, secreted into culture supernatant, ammonium sulfate precipitate (not further purified); not shown: 6xHis, C-terminal, kept; 6xHN, C-terminal, kept
B2: toripalimab Fab H.E54A (Fab, V domains shown)
VH: QGQLVQSGAEVKKPGASVKVSCKASGYTFTDYEMHWVRQAPIHGLEWIGVIESATGGTAYNQKFKGRVTITADKSTSTAYMELSSLRSEDTAVYYCAREGITTVATTYYWYFDVWGQGTTVTVSS
VL: DVVMTQSPLSLPVTLGQPASISCRSSQSIVHSNGNTYLEWYLQKPGQSPQLLIYKVSNRFSGVPDRFSGSGSGTDFTLKISRVEAEDVGVYYCFQGSHVPLTFGQGTKLEIK
notes: heavy chain of Sm3 with this change; numbers count from the chain's first residue; as the light chain of Sm3; source: Brevibacillus, culture supernatant (ammonium sulfate precipitate); not shown: 6xHis, C-terminal, kept; 6xHN, C-terminal, kept
B3: toripalimab Fab L.V99G (Fab, V domains shown)
VH: QGQLVQSGAEVKKPGASVKVSCKASGYTFTDYEMHWVRQAPIHGLEWIGVIESETGGTAYNQKFKGRVTITADKSTSTAYMELSSLRSEDTAVYYCAREGITTVATTYYWYFDVWGQGTTVTVSS
VL: DVVMTQSPLSLPVTLGQPASISCRSSQSIVHSNGNTYLEWYLQKPGQSPQLLIYKVSNRFSGVPDRFSGSGSGTDFTLKISRVEAEDVGVYYCFQGSHGPLTFGQGTKLEIK
notes: as the heavy chain of m1; as the light chain of m1, with the stated change; source: Brevibacillus, secreted into culture supernatant, ammonium sulfate precipitate (not further purified); not shown: 6xHis, C-terminal, kept; 6xHN, C-terminal, kept
B4: toripalimab Fab L.L101Q (Fab, V domains shown)
VH: QGQLVQSGAEVKKPGASVKVSCKASGYTFTDYEMHWVRQAPIHGLEWIGVIESETGGTAYNQKFKGRVTITADKSTSTAYMELSSLRSEDTAVYYCAREGITTVATTYYWYFDVWGQGTTVTVSS
VL: DVVMTQSPLSLPVTLGQPASISCRSSQSIVHSNGNTYLEWYLQKPGQSPQLLIYKVSNRFSGVPDRFSGSGSGTDFTLKISRVEAEDVGVYYCFQGSHVPQTFGQGTKLEIK
notes: as the heavy chain of Sm3; light chain of Sm3 with this change; numbers count from the chain's first residue; source: Brevibacillus, culture supernatant (ammonium sulfate precipitate); not shown: 6xHis, C-terminal, kept; 6xHN, C-terminal, kept
B5: toripalimab Fab L.P100H (Fab, V domains shown)
VH: QGQLVQSGAEVKKPGASVKVSCKASGYTFTDYEMHWVRQAPIHGLEWIGVIESETGGTAYNQKFKGRVTITADKSTSTAYMELSSLRSEDTAVYYCAREGITTVATTYYWYFDVWGQGTTVTVSS
VL: DVVMTQSPLSLPVTLGQPASISCRSSQSIVHSNGNTYLEWYLQKPGQSPQLLIYKVSNRFSGVPDRFSGSGSGTDFTLKISRVEAEDVGVYYCFQGSHVHLTFGQGTKLEIK
notes: as for B3
B6: toripalimab Fab L.L101S (Fab, V domains shown)
VH: QGQLVQSGAEVKKPGASVKVSCKASGYTFTDYEMHWVRQAPIHGLEWIGVIESETGGTAYNQKFKGRVTITADKSTSTAYMELSSLRSEDTAVYYCAREGITTVATTYYWYFDVWGQGTTVTVSS
VL: DVVMTQSPLSLPVTLGQPASISCRSSQSIVHSNGNTYLEWYLQKPGQSPQLLIYKVSNRFSGVPDRFSGSGSGTDFTLKISRVEAEDVGVYYCFQGSHVPSTFGQGTKLEIK
notes: as for B4
B7: toripalimab Fab L.T102A (Fab, V domains shown)
VH: QGQLVQSGAEVKKPGASVKVSCKASGYTFTDYEMHWVRQAPIHGLEWIGVIESETGGTAYNQKFKGRVTITADKSTSTAYMELSSLRSEDTAVYYCAREGITTVATTYYWYFDVWGQGTTVTVSS
VL: DVVMTQSPLSLPVTLGQPASISCRSSQSIVHSNGNTYLEWYLQKPGQSPQLLIYKVSNRFSGVPDRFSGSGSGTDFTLKISRVEAEDVGVYYCFQGSHVPLAFGQGTKLEIK
notes: as for B4

Experiments:
Conditions in all cases: one partner purified
[1] = target: T1, human programmed cell death protein 1 C93S (aa 24-167) (Homo sapiens, UniProt Q15116, C93S); experiment: SPR; BreviA on Carterra LSA: Fab from ammonium sulfate precipitate of Brevibacillus supernatant immobilised on NiHC200M sensor; hPD-1 (1-1024 nM) or mPD-1-Fc (4-1024 nM) as analyte, fourfold dilution series, no regeneration; HBS-EP pH 7.4, 25 °C; medians of spots
T1 construct: residues of the TEV site may be left after cleavage; also called hPD-1; human PD-1; source: Expi293F, transfected, purified (Protein A, TEV cleavage of Fc, Protein A + Ni-Sepharose, SEC; monomer fractions)

[2] = target: T2, human programmed cell death protein 1 (hPD-1) C93S (aa 24-167) (Homo sapiens, UniProt Q15116, C93S); experiment: SPR; Carterra LSA; Fab from the ammonium sulfate precipitate of the culture supernatant immobilised on a NiHC200M chip; hPD-1 (1-1024 nM) or mPD-1-Fc (4-1024 nM) as analyte, fourfold dilution series, no regeneration; HBS-EP pH 7.4, 25 °C; medians over the spots of a construct, KD = koff/kon
T2 construct: made as a fusion with a TEV site and human Fc; the Fc was cut off with TEV protease; source: Expi293F, purified (Protein A, TEV cleavage of Fc, SEC; monomer fractions); not shown: Fc (human), C-terminal, cleaved
Outline: (§1)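 Fabs from Brevibacillus culture supernatants were ammonium sulfate-precipitated, redissolved in HBS-EP and captured in duplicate on a NiHC200M chip (Carterra LSA, 25 °C). Human PD-1 (1–1024 nM) or mouse PD-1-Fc (4–1024 nM) flowed as fourfold series without regeneration, with 10 min association and 5 min dissociation; unconfirmed binders were set to kon 10^3 […], koff 10^−2 s^−1. Rates came from kdka model fits (slow- or fast-dissociation settings, best fit); KD is koff/kon from per-construct medians.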

[3] = target: T3, mouse programmed cell death protein 1 Fc fusion protein (mPD-1-Fc), mPD-1 C60S (aa 25-167) (Mus musculus, UniProt Q02242, stabilised); experiment: as above
T3 construct: not cleaved; source: Expi293F, purified (Protein A, SEC; dimeric fraction); not shown: Fc (human), C-terminal, kept
Outline: as §1

[4] = target: T4, mouse programmed cell death protein 1 C60S (aa 25-167) Fc fusion protein (Mus musculus, UniProt Q02242, stabilised); experiment: SPR; BreviA on Carterra LSA: Fab from ammonium sulfate precipitate of Brevibacillus supernatant immobilised on NiHC200M sensor; hPD-1 (1-1024 nM) or mPD-1-Fc (4-1024 nM) as analyte, fourfold dilution series, no regeneration; HBS-EP pH 7.4, 25 °C; medians of spots
T4 construct: the Fc was not cleaved; also called mPD-1-Fc; mPD-1 Fc fusion protein; source: Expi293F, transfected, purified (Protein A, SEC; dimeric fraction)

T2 sequence (Q15116 24-167 C93S): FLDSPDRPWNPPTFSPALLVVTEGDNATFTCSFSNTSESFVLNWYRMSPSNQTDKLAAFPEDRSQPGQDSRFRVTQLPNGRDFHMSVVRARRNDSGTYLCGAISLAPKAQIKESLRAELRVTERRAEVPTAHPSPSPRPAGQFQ
T1 sequence (Q15116 24-167 C93S): as above

| Binder | koff [1] [s⁻¹] | Kd [2] [nM] | koff [2] [s⁻¹] | kon [2] [M⁻¹ s⁻¹] | Kd [3] [nM] | koff [3] [s⁻¹] | kon [3] [M⁻¹ s⁻¹] | fold increase in affinity against the wild type [4] [fold] |
| --- | --- | --- | --- | --- | --- | --- | --- | --- |
| B1 | < 1e-05 | – | – | – | – | – | – | – |
| B2 | – | 1.23 | 2.52e-05 | 20400 | 202 | 0.00772 | 38300 | – |
| B3 | – | – | – | – | – | – | – | > 100 |
| B4 | – | 2.78 | 2.5e-05 | 8990 | 265 | 0.0143 | 54000 | – |
| B5 | – | – | – | – | – | – | – | > 100 |
| B6 | – | 4.13 | 2.42e-05 | 5870 | 48.2 | 0.000659 | 13700 | – |
| B7 | – | < 0.809 | < 1e-05 | 12400 | 115 | 0.00395 | 34200 | – |
